Results: paper PMC6255760 (Nature Communications, 2018)

Assays:
[1] = molecular target: the molecule itself; experiment: SEC; size-exclusion profiles of the purified NOD1/RIP2 and NOD2/RIP2 fusion proteins
[2] = molecular target: the molecule itself; experiment: cryo-EM structure; helical reconstruction of core RIP2–CARD–EM filaments, 4.1 Å (FSC = 0.143), Relion 2.0
[3] = molecular target: the molecule itself; experiment: induced oligomerization assay; RIP2 and NLRC4–CARD monomers each mixed with their own and with other seed complexes (Supplementary Figure 4d)
[4] = molecular target: the molecule itself; experiment: negative stain EM; recombinant SNAP–RIP2–CARD seeds co-incubated with refolded monomers (about 20 μM monomer, 10:1 monomer to seed, overnight); SNAP removed with 3C protease for the core filaments; 49,000x
[5] = molecular target: the molecule itself; experiment: negative stain EM; FLAG-tagged proteins overexpressed in HEK293T, purified with anti-FLAG M2 agarose beads and concentrated; filaments looked for

B1: top-down NOD2/RIP2 fusion construct (other)
chain: QPGIAQQWIQSKERDIVNQMTEACLNQSLDALLSRDLIMKEDYELVSTKPTRTSKVRQLLDTTDIQGEEFAKVIVQKLKDNKQMGLQPYPEILVVSRSPSLNLLQNKSMMCSQEAFQAQRSQLVELLVSGSLEGFESVLDWLLSWEVLSWEDYEGFHLLGQPLSHLARRLLDTVWNKGTWACQKLIAAAQEAQADSQSPKLHGCWDPHSLHPARDLQSHRPAIVRRLHSHVENMLDLAWERGFVSQYECDEIRLPIFTPSQRARRLLDLATVKANGLAAFLLQHVQELPVPLALPLEAATCK
[1]
  stoichiometry N: ~4

B2: RIP2–CARD–EM (domain or fragment, human)
chain: VDEALREAQTKSAQPGIAQQWIQSKREDIVNQMTEACLNQSLDALLSRDLIMKEDYELVSTKPTRTSKVRQLLDTTDIQGEEFAKVIVQKLKDNKQMGLQPYPEILVVSRS
notes: 13 extra amino acids (13aa) attached to the N-terminus of residue 432 of RIP2–CARD; RIP2 (RIPK2), human, CARD domain 432–529 (last 11 residues of 432–540 removed); also called core RIP2–CARD–EM; RIP2–CARD (432–529); source: E. coli BL21(DE3); not shown: SNAP-tag, N-terminal, cleaved
[2]
  binding result: binds

B3: top-down NOD1/RIP2 fusion construct (other)
chain: QPGIAQQWIQSKERDIVNQMTEACLNQSLDALLSRDLIMKEDYELVSTKPTRTSKVRQLLDTTDIQGEEFAKVIVQKLKDNKQMGLQPYPEILVVSRSPSLNLLQNKSMMEEQGHSEMEIIPSESHPHIQLLKSNRELLVTHIRNTQCLVDNLLKNDYFSAEDAEIVCACPTQPDKVRKILDLVQSKGEEVSEFFLYLLQQLADAYVDLRPWLLEIGFS
[1]
  stoichiometry N: ~4

B4: SNAP–RIP2–CARD (domain or fragment, human, UniProt O43353 432-540, looked up)
chain: QPGIAQQWIQSKREDIVNQMTEACLNQSLDALLSRDLIMKEDYELVSTKPTRTSKVRQLLDTTDIQGEEFAKVIVQKLKDNKQMGLQPYPEILVVSRSPSLNLLQNKSM
modifications: BG-Alexa Fluor 647 on monomers, BG-Alexa Fluor 488 on seeds (native gel assay)
notes: RIP2 (RIPK2), human, CARD domain residues 432–540; a 3C protease site lies between SNAP and the CARD; the methods also name a RIP2–CARD (432–540)–SNAP; also called SNAP–RIP2–CARD seeds; SNAP–RIP2–CARD monomers; source: E. coli BL21(DE3), purified (Ni-NTA, SEC): oligomeric seed fraction; not shown: SNAP-tag, N-terminal, kept
[3]
  binding result: binds

B5: core RIP2–CARD filament (SNAP removed) (domain or fragment, human, UniProt O43353 432-540, looked up)
chain: B4 chain
notes: RIP2 (RIPK2), human, CARD domain residues 432–540; also called 3C-protease-digested core RIP2–CARD thin filament; source: E. coli BL21(DE3); extended SNAP–RIP2–CARD filaments digested with 3C protease, purified (Superose 6); not shown: SNAP-tag, N-terminal, cleaved
[4]
  binding result: binds

B6: FLAG–RIP2-kinase-NLRC4–CARD (other, human, UniProt O43353 1-431, looked up)
chain: MNGEAICSALPTIPYHKLADLRYLSRGASGTVSSARHADWRVQVAVKHLHIHTPLLDSERKDVLREAEILHKARFSYILPILGICNEPEFLGIVTEYMPNGSLNELLHRKTEYPDVAWPLRFRILHEIALGVNYLHNMTPPLLHHDLKTQNILLDNEFHVKIADFGLSKWRMMSLSQSRSSKSAPEGGTIIYMPPENYEPGQKSRASIKHDIYSYAVITWEVLSRKQPFEDVTNPLQIMYSVSQGHRPVINEESLPYDIPHRARMISLIESGWAQNPDERPSFLKCLIELEPVLRTFEEITFLEAVIQLKKTKLQSVSSAIHLCDKKKMELSLNIPVNHGPQEESCGSSQLHENSGSPETSRSLPAPQDNDFLSRKAQDCYFMKLHHCPGNHSWDSTISGSQRAAFCDHKTTPCSSAIINPLSTAGNSERLMNFIKDNSRALIQRMGMTVIKQITDDLFVWNVLNREEVNIICCEKVEQDAARGIIHMILKKGSESCNLFLKSLKEWNYPLFQDLNGQSLFHQTSEGDLDD
notes: RIP2 (RIPK2), human, what is left of 1–540 when the CARD domain (432–540) is replaced; NLRC4 CARD, human, residues 1–100, in place of the RIP2–CARD domain; the limit 431 is worked out from the replaced stretch 432–540; also called chimeric RIP2; NLRC4–CARD swapped construct; source: HEK293T, transfected; purified from cellular extracts (EM); in total cellular extracts (sedimentation); not shown: …
[5]
  binding result: binds
